Reference: publication PMC2756588

T1: Lsb3, P43603
T1 sequence (P43603 385-451, looked up): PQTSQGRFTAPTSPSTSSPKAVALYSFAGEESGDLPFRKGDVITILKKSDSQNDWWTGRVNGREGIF

T2: Fus1, P11710
T2 sequence (P11710 432-512, looked up): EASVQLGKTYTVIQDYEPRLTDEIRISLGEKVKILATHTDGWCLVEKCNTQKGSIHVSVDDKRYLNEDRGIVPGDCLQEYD

T3: Boi2, P39969
T3 sequence (P39969 32-116, looked up): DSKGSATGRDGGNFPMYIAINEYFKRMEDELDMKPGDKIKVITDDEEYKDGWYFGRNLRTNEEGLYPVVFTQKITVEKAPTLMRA

T4: Bbc1, P47068
T4 sequence (P47068 1-78, looked up): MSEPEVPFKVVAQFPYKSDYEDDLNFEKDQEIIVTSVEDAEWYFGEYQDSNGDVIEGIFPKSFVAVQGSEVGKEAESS

T5: Sla1-2, P32790
T5 sequence (P32790 60-140, looked up): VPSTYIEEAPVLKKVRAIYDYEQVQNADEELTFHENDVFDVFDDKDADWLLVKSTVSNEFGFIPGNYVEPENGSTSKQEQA

T6: Pin3, Q06449
T6 sequence (Q06449 53-122, looked up): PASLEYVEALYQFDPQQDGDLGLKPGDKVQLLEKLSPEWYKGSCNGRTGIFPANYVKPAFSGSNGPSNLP

T7: Bzz1-1, P38822
T7 sequence (P38822 478-572, looked up): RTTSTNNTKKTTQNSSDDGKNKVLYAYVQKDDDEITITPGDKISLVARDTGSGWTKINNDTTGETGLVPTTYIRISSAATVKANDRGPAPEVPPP

T8: Hse1, P38753
T8 sequence (P38753 208-285, looked up): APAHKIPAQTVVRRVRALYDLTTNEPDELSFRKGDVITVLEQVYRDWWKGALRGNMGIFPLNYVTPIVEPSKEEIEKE

T9: Boi1, P38041
T9 sequence (P38041 1-86, looked up): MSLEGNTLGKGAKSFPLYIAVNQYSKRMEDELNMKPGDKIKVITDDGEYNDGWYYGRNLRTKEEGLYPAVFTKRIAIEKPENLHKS

T10: Hof1, Q05080
T10 sequence (Q05080 590-669, looked up): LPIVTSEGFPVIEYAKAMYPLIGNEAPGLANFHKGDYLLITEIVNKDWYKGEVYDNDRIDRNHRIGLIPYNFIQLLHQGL

T11: Cdc25, P04821
T11 sequence (P04821 50-136, looked up): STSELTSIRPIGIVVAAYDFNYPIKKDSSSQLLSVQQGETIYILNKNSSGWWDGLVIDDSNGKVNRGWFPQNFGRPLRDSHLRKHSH

T12: Lsb4, P32793
T12 sequence (P32793 402-468, looked up): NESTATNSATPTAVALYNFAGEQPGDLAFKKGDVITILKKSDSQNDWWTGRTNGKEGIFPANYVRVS

T13: Sla1-3, P32790
T13 sequence (P32790 344-424, looked up): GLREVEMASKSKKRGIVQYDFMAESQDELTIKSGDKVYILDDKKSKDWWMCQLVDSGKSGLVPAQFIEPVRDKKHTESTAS

T14: Nbp2, Q12163
T14 sequence (Q12163 103-180, looked up): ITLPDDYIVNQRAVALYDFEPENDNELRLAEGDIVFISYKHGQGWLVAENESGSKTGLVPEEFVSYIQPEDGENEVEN

T15: Bud14, P27637
T15 sequence (P27637 247-328, looked up): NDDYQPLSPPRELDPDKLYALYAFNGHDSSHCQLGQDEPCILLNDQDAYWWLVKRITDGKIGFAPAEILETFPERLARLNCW

T16: Cyk3, Q07533
T16 sequence (Q07533 1-83, looked up): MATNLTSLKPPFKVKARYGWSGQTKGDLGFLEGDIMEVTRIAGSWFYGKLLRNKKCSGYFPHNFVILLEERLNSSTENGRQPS

T17: Bzz1-2, P38822
T17 sequence (P38822 568-633, looked up): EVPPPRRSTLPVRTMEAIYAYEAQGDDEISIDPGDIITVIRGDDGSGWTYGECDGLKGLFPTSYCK

T18: Myo5, Q04439
T18 sequence (Q04439 1072-1160, looked up): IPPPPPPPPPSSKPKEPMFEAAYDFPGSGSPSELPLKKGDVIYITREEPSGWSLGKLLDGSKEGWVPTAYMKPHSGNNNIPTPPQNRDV

T19: Pex13, P80667
T19 sequence (P80667 295-386, looked up): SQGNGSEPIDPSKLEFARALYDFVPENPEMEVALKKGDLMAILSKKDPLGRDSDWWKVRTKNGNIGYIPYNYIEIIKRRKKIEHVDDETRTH

T20: Abp1, P15891
T20 sequence (P15891 535-592, looked up): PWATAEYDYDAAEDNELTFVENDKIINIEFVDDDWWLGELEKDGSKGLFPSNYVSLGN

T21: Lsb1, P53281
T21 sequence (P53281 45-122, looked up): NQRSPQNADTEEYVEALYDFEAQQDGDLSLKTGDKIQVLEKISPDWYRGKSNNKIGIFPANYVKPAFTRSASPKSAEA

B1: unnamed (peptide)
chain: LRIKRKPVQTFFEFI
B2: unnamed (peptide)
chain: ISRRRLPVIMHRLKM
B3: unnamed (peptide)
chain: VRVKKRPLIRPLNSS

Each binder was assayed against T1, Lsb3, P43603 (assay: SPOT array). Conditions: median of control spots 406.

Binder	SPOT intensity
B1	0
B2	2
B3	6

Each binder was assayed against Myo3, P36006 (assay: SPOT array). Conditions: median of control spots 468.

Binder	SPOT intensity
B1	8
B2	7
B3	8

What follows are binders tested against T2, Fus1, P11710 (assay: SPOT array). Conditions: median of control spots 1200.

Binder	SPOT intensity
B1	16
B2	15
B3	6

Each binder was assayed against T3, Boi2, P39969 (assay: SPOT array). Conditions: median of control spots 1161.

Binder	SPOT intensity
B1	1
B2	1
B3	3

What follows are binders tested against T4, Bbc1, P47068 (assay: SPOT array). Conditions: median of control spots 796.

Binder	SPOT intensity
B1	54
B2	26
B3	201

The binders below were run against T5, Sla1-2, P32790 (assay: SPOT array). Conditions: median of control spots 712.

Binder	SPOT intensity
B1	0
B2	1
B3	2

Each binder was assayed against T6, Pin3, Q06449 (assay: SPOT array). Conditions: median of control spots 2171.

Binder	SPOT intensity
B1	5
B2	27
B3	1

These binders were tested against T7, Bzz1-1, P38822 (assay: SPOT array). Conditions: median of control spots 4446.

Binder	SPOT intensity
B1	0
B2	0
B3	1

These binders were tested against T8, Hse1, P38753 (assay: SPOT array). Conditions: median of control spots 1727.

Binder	SPOT intensity
B1	25
B2	17
B3	14

What follows are binders tested against T9, Boi1, P38041 (assay: SPOT array). Conditions: median of control spots 1162.

Binder	SPOT intensity
B1	11
B2	1
B3	2

These binders were tested against GST (assay: SPOT array). Conditions: median of control spots 978.

Binder	SPOT intensity
B1	1
B2	0
B3	1

Each binder was assayed against T10, Hof1, Q05080 (assay: SPOT array). Conditions: median of control spots 4086.

Binder	SPOT intensity
B1	7
B2	9
B3	0

Each binder was assayed against Bem1-1, P29366 (assay: SPOT array). Conditions: median of control spots 4282.
Bem1-1, P29366, sequence (P29366 55-141): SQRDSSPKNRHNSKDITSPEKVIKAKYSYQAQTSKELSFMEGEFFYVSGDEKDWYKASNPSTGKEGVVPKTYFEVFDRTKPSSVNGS

Binder	SPOT intensity
B1	1
B2	0
B3	0

The binders below were run against T11, Cdc25, P04821 (assay: SPOT array). Conditions: median of control spots 969.

Binder	SPOT intensity
B1	271
B2	51
B3	127

These binders were tested against T12, Lsb4, P32793 (assay: SPOT array). Conditions: median of control spots 397.

Binder	SPOT intensity
B1	12
B2	21
B3	16

These binders were tested against T13, Sla1-3, P32790 (assay: SPOT array). Conditions: median of control spots 5475.

Binder	SPOT intensity
B1	9
B2	20
B3	22

These binders were tested against T14, Nbp2, Q12163 (assay: SPOT array). Conditions: median of control spots 357.

Binder	SPOT intensity
B1	46
B2	5
B3	9

Each binder was assayed against T15, Bud14, P27637 (assay: SPOT array). Conditions: median of control spots 956.

Binder	SPOT intensity
B1	17
B2	2
B3	16

Each binder was assayed against T16, Cyk3, Q07533 (assay: SPOT array). Conditions: median of control spots 1451.

Binder	SPOT intensity
B1	1
B2	0
B3	2

Each binder was assayed against Rvs167, P39743 (assay: SPOT array). Conditions: median of control spots 2707.
Rvs167, P39743, sequence (P39743 419-482): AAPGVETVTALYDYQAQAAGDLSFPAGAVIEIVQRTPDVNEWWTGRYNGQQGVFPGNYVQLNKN

Binder	SPOT intensity
B1	2
B2	21
B3	7

These binders were tested against Sho1, P40073 (assay: SPOT array). Conditions: median of control spots 1148.
Sho1, P40073, sequence (P40073 287-367): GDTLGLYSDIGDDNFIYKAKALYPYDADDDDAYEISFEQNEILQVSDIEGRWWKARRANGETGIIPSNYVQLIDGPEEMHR

Binder	SPOT intensity
B1	173
B2	112
B3	188

These binders were tested against T17, Bzz1-2, P38822 (assay: SPOT array). Conditions: median of control spots 4538.

Binder	SPOT intensity
B1	0
B2	5
B3	11

What follows are binders tested against T18, Myo5, Q04439 (assay: SPOT array). Conditions: median of control spots 471.

Binder	SPOT intensity
B1	0
B2	2
B3	1

The binders below were run against T19, Pex13, P80667 (assay: SPOT array). Conditions: median of control spots 1341.

Binder	SPOT intensity
B1	13
B2	22
B3	4

These binders were tested against Bem1-2, P29366 (assay: SPOT array). Conditions: median of control spots 4347.
Bem1-2, P29366, sequence (P29366 139-227): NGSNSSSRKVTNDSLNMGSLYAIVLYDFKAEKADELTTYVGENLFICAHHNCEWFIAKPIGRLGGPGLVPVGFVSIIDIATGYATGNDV

Binder	SPOT intensity
B1	4
B2	16
B3	0

What follows are binders tested against T20, Abp1, P15891 (assay: SPOT array). Conditions: median of control spots 935.

Binder	SPOT intensity
B1	102
B2	90
B3	301

The binders below were run against T21, Lsb1, P53281 (assay: SPOT array). Conditions: median of control spots 388.

Binder	SPOT intensity
B1	4
B2	137
B3	9
